The text below walks through data of patent US20160046957A1.

The assay concerns the target human coagulation Factor X (human) (UniProt P00742). Briefly: cell-based or functional assay.
Chain of UniProt P00742 (P00742 41-488): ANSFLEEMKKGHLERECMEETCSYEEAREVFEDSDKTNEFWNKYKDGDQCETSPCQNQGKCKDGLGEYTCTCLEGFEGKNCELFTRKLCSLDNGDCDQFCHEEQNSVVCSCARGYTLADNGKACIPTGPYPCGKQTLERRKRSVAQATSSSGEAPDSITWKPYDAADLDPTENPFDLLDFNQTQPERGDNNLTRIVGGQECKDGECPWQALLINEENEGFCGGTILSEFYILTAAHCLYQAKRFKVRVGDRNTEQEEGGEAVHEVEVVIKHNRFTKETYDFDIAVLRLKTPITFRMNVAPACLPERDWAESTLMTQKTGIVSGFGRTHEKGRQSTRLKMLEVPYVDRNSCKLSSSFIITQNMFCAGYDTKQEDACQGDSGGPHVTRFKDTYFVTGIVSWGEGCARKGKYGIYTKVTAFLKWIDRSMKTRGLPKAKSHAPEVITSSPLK

With “human furin (from UniProt P09958 108-794) (enzyme)”, the estimated furin concentration in the cell culture medium resulting in equal or higher 90% fully processed FX of total FX (Emax model on Western blot densitometry and furin activity assay) was greater than 57 U/mL.
